The source of these data is publication doi:10.1101/2023.11.17.567542 (bioRxiv, 2023).

The experiment addresses T1, HypD (Escherichia coli, UniProt P24192 1-373).
T1 sequence (looked up): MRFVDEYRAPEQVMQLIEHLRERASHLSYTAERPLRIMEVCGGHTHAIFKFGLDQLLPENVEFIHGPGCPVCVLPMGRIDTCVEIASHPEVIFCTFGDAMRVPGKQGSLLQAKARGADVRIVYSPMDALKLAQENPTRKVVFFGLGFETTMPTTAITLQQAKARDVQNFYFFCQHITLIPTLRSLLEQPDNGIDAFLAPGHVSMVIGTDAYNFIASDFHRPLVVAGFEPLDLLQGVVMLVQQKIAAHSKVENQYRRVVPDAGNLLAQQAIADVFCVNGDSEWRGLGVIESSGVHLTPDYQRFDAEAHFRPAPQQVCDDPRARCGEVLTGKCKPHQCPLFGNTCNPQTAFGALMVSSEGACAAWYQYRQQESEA
The experiment is described as follows: pull-down.

B1: StrepII-tagged HypC with amino acid exchange C2A (natural protein, Escherichia coli, UniProt P0AAM3 2-90, looked up)
chain: AIGVPGQIRTIDGNQAKVDVCGIQRDVDLTLVGSCDENGQPRVGQWVLVHVGFAMSVINEAEARDTLDALQNMFDVEPDVGALLYGEEK
In the case of B1, the binding result is given as “binds”.
